This note sets out measurements from article PMC8956256 (Science Advances, 2022).

The data set deals with the molecule itself. The experiment in a line: cryo-EM structure.

B1: Human TMEM175 (transmembrane protein 175) (natural protein)
chain: MSQPRTPEQALDTPGDCPPGRRDEDAGEGIQCSQRMLSFSDALLSIIATVMILPVTHTEISPEQQFDRSVQRLLATRIAVYLMTFLIVTVAWAAHTRLFQVVGKTDDTLALLNLACMMTITFLPYTFSLMVTFPDVPLGIFLFCVCVIAIGVVQALIVGYAFHFPHLLSPQIQRSAHRALYRRHVLGIVLQGPALCFAAAIFSLFFVPLSYLLMVTVILLPYVSKVTGWCRDRLLGHREPSAHPVEVFSFDLHEPLSKERVEAFSDGVYAIVATLLILDICEDNVPDPKDVKERFSGSLVAALSATGPRFLAYFGSFATVGLLWFAHHSLFLHVRKATRAMGLLNTLSLAFVGGLPLAYQQTSAFARQPRDELERVRVSCTIIFLASIFQLAMWTTALLHQAETLQPSVWFGGREHVLMFAKLALYPCASLLAFASTCLLSRFSVGIFHLMQIAVPCAFLLLRLLVGLALATLRVLRGLARPEHPPPAPTGQDDPQSQLLPAPC
What is called stoichiometry N is the number of molecules, sites or subunits per partner or assembly. Consider B1, for which the “stoichiometry N” value turned out to be 2.
